Measurements taken from publication PMC10427353, “MSL1 Promotes Liver Regeneration by Driving Phase Separation of STAT3 and Histone H4 and Enhancing Their Acetylation” (Advanced Science, 2023).

Assays:
[1] = target: T1, STAT3 (recombinant, pET‐28a) (mouse, UniProt P42227 1-770); test: co-sedimentation; sedimentation assay of condensates: purified proteins mixed in phase separation buffer (20 mM HEPES pH 7.8, NaCl, PEG‐8000), 15 000 g for 10 min, supernatant and pellet on SDS–PAGE with Coomassie staining; conditions: both partners purified
T1 construct: STAT3 in pET‐28a; cDNA amplified from mouse liver; The legend of the sedimentation assay names 'STAT3'; source: E. coli BL21, purified (HiTrap HP chelating column)

[2] = target: T2, H4 (recombinant, pET‐28a) (mouse, UniProt P62806 1-103); test: as above; conditions: both partners purified
T2 construct: histone H4 in pET‐28a; cDNA amplified from mouse liver; The legend of the sedimentation assay names 'H4'; also called histone H4; source: E. coli BL21, purified (HiTrap HP chelating column)

T1 sequence (P42227 whole entry): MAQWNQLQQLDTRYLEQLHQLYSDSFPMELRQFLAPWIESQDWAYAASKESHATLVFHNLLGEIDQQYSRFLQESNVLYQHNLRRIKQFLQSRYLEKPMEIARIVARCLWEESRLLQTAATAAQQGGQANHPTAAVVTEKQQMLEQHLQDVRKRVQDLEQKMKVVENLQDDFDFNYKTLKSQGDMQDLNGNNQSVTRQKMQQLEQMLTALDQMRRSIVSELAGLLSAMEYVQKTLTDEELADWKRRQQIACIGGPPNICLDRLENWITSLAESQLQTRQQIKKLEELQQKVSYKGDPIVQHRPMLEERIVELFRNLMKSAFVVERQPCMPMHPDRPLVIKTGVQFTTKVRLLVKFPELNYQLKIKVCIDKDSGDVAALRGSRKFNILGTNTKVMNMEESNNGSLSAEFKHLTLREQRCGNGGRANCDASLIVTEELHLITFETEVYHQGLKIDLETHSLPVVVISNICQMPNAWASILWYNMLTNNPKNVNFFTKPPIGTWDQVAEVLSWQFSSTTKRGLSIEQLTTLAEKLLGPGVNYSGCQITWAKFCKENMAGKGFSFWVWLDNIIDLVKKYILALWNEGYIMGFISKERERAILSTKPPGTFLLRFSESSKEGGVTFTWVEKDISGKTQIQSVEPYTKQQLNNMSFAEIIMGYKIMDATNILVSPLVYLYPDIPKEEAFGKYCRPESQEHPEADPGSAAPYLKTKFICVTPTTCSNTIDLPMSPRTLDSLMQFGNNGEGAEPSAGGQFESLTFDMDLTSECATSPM

binding result [1]: binds
binding result [2]: binds
B1: MSL1 (recombinant, pET‐28a) (natural protein, mouse, UniProt Q6PDM1 1-616, looked up)
chain: MTMRSAVFKAAAAPAGGNPEQRLDYERAAALGGPEDESGAAEAHFLPRHRKLKEPGPPLASSQGGSPSPSPAGCGGGKGRGLLLPAGAAPGQQEESWGGSVPLPCPPPATKQAGIGGEPVAAGAGCSPRPKYQAVLPIQTGSIVVAAAKEPTPWAGDKGGAAPPAATASDPAGPPPLPLPGPPPLAPTATAGTLAASEGRWKSIRKSPLGGGGGSGASSQAACLKQILLLQLDLIEQQQQQLQAKEKEIEELKSERDTLLARIERMERRMQLVKRDNEKERHKLLQGYEPEEREEAELSEKIKLERQPELCETSQALPSKPFSCGRSGKGHKRKTPFGNTERKTPVKKLAPEFSKVKTKTPKHSPIKEEPCGSISETVCKRELRSQETPEKPRSSVDTPPRLSTPQKGPSTHPKEKAFSSEMEDLPYLSTTEMYLCRWHQPPPSPLPLRESSPKKEETVARCLMPSSVAGETSVLAVPSWRDHSVEPLRDPNPSDILENLDDSVFSKRHAKLELDEKRRKRWDIQRIREQRILQRLQLRMYKKKGIQESEPEVTSFFPEPDDVESLLITPFLPVVAFGRPLPKLAPQNFELPWLDERSRCRLEIQKKHTPHRTCRK
notes: MSL1 in pET‐28a; cDNA amplified from mouse liver; The legend of the sedimentation assay names 'MSL1'; source: E. coli BL21, purified (HiTrap HP chelating column)
